Results reported in paper doi:10.1101/452920.
Like-named read-outs stand apart in the source and are kept apart here.

T1: MRPP3 (Δ95) (human, UniProt O15091 96-583, del1-95)
T1 sequence: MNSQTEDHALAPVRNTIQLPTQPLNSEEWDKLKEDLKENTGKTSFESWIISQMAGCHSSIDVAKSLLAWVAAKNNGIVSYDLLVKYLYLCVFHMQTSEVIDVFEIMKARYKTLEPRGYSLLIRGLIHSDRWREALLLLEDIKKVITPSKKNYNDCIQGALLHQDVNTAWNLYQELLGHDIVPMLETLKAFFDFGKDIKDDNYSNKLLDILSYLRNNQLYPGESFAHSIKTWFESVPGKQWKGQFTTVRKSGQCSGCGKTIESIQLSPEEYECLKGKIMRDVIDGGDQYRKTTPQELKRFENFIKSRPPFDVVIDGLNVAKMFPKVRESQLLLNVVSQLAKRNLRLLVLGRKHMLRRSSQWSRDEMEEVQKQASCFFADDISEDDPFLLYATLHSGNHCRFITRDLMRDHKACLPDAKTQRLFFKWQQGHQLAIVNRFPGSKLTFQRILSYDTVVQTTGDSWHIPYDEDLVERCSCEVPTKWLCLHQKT

T2: MRPP1 (Δ39);MRPP2 (human;human, UniProt Q7L0Y3;Q99714 40-403;1-261, del1-39|)
T2 sequence 1: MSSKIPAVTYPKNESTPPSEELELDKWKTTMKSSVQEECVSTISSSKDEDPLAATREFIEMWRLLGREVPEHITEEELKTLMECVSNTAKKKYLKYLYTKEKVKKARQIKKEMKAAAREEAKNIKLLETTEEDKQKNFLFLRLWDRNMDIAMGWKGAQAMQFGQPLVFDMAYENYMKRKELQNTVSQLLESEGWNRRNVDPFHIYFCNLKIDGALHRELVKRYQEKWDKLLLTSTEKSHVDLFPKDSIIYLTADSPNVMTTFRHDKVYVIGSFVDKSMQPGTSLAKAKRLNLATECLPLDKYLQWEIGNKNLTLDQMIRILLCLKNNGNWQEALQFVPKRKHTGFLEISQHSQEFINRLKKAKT
T2 sequence 2: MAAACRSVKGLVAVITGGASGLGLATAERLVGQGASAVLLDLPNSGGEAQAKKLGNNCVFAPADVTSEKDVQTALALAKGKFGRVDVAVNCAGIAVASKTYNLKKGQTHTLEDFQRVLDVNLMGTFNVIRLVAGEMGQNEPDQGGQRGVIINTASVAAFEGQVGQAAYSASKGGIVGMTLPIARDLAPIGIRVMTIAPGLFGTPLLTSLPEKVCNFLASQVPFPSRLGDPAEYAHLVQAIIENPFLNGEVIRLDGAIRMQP

T3: MRPP1 (Δ39);MRPP2;MRPP3 (Δ95) (human;human;human, UniProt Q7L0Y3;Q99714;O15091 40-403;1-261;96-583, del1-39||del1-95)
T3 sequence 1: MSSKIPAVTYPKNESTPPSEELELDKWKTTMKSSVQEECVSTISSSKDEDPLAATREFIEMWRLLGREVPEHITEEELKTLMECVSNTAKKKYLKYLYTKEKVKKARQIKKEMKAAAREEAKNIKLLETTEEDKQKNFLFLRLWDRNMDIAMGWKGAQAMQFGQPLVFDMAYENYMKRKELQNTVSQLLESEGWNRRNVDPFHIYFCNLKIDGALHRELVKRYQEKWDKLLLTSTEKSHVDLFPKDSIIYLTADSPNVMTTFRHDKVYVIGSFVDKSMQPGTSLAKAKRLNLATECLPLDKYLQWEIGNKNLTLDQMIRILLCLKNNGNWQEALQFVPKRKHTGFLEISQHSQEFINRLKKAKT
T3 sequence 2: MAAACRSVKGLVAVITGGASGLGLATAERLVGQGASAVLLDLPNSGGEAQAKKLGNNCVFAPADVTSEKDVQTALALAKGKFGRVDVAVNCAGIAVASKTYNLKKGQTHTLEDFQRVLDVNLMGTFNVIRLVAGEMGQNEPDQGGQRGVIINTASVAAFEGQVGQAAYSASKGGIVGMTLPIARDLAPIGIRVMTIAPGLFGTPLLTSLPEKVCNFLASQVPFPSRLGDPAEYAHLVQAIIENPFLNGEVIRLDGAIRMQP
T3 sequence 3: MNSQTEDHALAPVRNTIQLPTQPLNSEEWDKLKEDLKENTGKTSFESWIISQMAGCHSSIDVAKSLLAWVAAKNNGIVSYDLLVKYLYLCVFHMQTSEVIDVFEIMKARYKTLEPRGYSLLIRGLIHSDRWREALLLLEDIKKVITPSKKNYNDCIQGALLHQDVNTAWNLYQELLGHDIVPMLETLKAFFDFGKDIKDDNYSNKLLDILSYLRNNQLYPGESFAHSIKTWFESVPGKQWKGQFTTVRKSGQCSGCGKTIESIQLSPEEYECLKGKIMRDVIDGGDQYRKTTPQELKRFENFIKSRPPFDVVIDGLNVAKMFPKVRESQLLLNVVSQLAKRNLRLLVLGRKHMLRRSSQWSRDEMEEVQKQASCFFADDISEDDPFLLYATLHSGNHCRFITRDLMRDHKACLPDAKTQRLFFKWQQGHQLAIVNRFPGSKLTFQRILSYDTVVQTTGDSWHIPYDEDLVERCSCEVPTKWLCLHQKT


What was measured:
Test in all cases: fluorescence anisotropy
MRPP3 (Δ95) = target: T1, MRPP3 (Δ95)
MRPP1 (Δ39);MRPP2 [1] = target: T2, MRPP1 (Δ39);MRPP2
[2] = target: T3, MRPP1 (Δ39);MRPP2;MRPP3 (Δ95)
MRPP1 (Δ39);MRPP2 [3] = target: T2, MRPP1 (Δ39);MRPP2; remark: listed apart in the source
[4] = target: T3, MRPP1 (Δ39);MRPP2;MRPP3 (Δ95); remark: listed apart in the source

| Binder | Kd (MRPP3 (Δ95)) [µM] | binding result (MRPP1 (Δ39);MRPP2 [1]) | binding result [2] | binding result (MRPP1 (Δ39);MRPP2 [3]) | binding result [4] |
| --- | --- | --- | --- | --- | --- |
| (mt)pre-tRNAVal7:0 (structured_RNA) RNA: GACGAACCAGAGUGUAGCUUAACACAAAGCACCCAACUUACACUUAGGAGAUUUCAACUUAACUUGACCGCUCUGA | 21.7 ± 2.6 | binds | binds |  |  |
| (mt)pre-tRNAVal/C9 (structured_RNA) RNA: GACGAACCAGAGUGUCGCUUAACACAAAGCACCCAACUUACACUUAGGAGAUUUCAACUUAACUUGACCGCUCUGA |  |  |  | binds | binds |
